Molecular target: T1, Full-length human His-tagged angiotensin-converting enzyme 2 (ACE2) (human, UniProt Q9BYF1)
T1 construct: also called hACE2
Test: cryo-EM structure
Details: both partners purified

T1 sequence (Q9BYF1 18-805): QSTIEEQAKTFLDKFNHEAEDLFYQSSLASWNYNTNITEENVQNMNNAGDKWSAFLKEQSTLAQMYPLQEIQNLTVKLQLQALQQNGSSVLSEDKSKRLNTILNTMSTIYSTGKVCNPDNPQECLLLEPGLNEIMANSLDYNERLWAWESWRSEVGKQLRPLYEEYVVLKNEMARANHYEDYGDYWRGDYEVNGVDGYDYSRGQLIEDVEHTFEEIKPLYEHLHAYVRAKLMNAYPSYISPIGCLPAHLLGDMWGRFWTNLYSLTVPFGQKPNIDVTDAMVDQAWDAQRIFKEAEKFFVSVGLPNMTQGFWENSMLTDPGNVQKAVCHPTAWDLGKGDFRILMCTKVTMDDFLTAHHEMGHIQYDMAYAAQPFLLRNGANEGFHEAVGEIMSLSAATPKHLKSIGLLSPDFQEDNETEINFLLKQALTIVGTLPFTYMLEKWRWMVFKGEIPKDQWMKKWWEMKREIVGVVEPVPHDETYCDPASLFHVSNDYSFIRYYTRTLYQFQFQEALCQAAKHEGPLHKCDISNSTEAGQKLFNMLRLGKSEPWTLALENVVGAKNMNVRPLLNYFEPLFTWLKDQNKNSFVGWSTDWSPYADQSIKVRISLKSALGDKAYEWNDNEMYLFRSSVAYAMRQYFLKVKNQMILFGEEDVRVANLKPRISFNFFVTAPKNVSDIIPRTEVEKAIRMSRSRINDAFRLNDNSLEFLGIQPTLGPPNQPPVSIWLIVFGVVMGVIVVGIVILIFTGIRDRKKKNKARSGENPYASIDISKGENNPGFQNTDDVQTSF

B1: Full-length human Flag-tagged SIT1 (SLC6A20) (natural protein)
chain: MEKARPLWANSLQFVFACISYAVGLGNVWRFPYLCQMYGGGSFLVPYIIMLIVEGMPLLYLELAVGQRMRQGSIGAWRTISPYLSGVGVASVVVSFFLSMYYNVINAWAFWYLFHSFQDPLPWSVCPLNGNHTGYDEECEKASSTQYFWYRKTLNISPSLQENGGVQWEPALCLLLAWLVVYLCILRGTESTGKVVYFTASLPYCVLIIYLIRGLTLHGATNGLMYMFTPKIEQLANPKAWINAATQIFFSLGLGFGSLIAFASYNEPSNNCQKHAIIVSLINSFTSIFASIVTFSIYGFKATFNYENCLKKVSLLLTNTFDLEDGFLTASNLEQVKGYLASAYPSKYSEMFPQIKNCSLESELDTAVQGTGLAFIVYTEAIKNMEVSQLWSVLYFFMLLMLGIGSMLGNTAAILTPLTDSKIISSHLPKEAISGLVCLVNCAIGMVFTMEAGNYWFDIFNDYAATLSLLLIVLVETIAVCYVYGLRRFESDLKAMTGRAVSWYWKVMWAGVSPLLIVSLFVFYLSDYILTGTLKYQAWDASQGQLVTKDYPAYALAVIGLLVASSTMCIPLAALGTFVQRRLKRGDADPVA
- binding result: binds
